Patent publication US20230022970A1, “USE OF GLIAL CELL LINE-DERIVED NEUROTROPHIC FACTOR (GDNF) FOR THE TREATMENT OF ENTERIC NEUROPATHIES” (TRANSFERT PLUS, société en commandite, priority 2019, published 2023)
Where no end group is shown, it is not given here.

Tests used:
[1] = test system: Hol^Tg/Tg mice (model for Trisomy 21 [Collagen VI]-associated HSCR); experiment: GDNF enema treatment, survival of Hol^Tg/Tg pups; format: in vivo, mouse; conditions: 10 μg in 10 μl PBS enema once daily P4-P8, Hol^Tg/Tg mice
Protocol: (§1) For all enema treatments, mutant mouse pups were identified at P3 via pigmentation-based genotyping. Unless specified otherwise (see FIG. 1), 10 μl enemas consisting of a 1 μg/μl solution of recombinant human mature GDNF (Peprotech cat. #450-10) diluted in PBS were administered daily between P4 to P8. […] Other tested molecules (1 μg/μl solution in 10 μl enemas) included the serotonin receptor (5-HT4R) agonist RS67506 (R&D Systems, Cat. #0990), Noggin (Sigma, Cat. # SRP4675), endothelin-3 (Sigma, Cat. # E9137), serotonin (Sigma, Cat. # H9523), and L-ascorbic acid (Sigma, Cat. # A4403). Enemas were administered using a 24-gauge gavage needle (Fine Science Tools, Canada) attached to a micropipette. The head of the gavage needle was introduced in the rectum just beyond the anus (pre-lubricated with Vaseline™), and enemas were injected over the course of a few seconds. Pups were then placed back with their mother, and either sacrificed at P20 for tissue analysis or checked daily to track survival.
It was first tested if GDNF enemas in young mice could enhance enteric neuron numbers and restore function in distal aganglionic bowel using three mouse models of short-segment HSCR. Selected lines were Holstein (Hol^Tg/Tg; a model for Trisomy 21 [Collagen VI]-associated HSCR) (39), TashT (TashT^Tg/Tg; a model for male-biased HSCR) (40), and Piebald-lethal (Ednrb^S-l/s-l; a model for EDNRB mutation-associated HSCR) (41). The enema volume necessary to fill whole colon, concentration of GDNF homodimer (30 kDa), treatment time window, as well as duration and frequency of therapy were first determined with Hol^Tg/Tg pups (FIGS. 1A-D). […] Remarkably, the selected treatment (i.e. daily administration of 10 μg GDNF in PBS as 10 μl enemas for 5 consecutive days between postnatal day [P]4 to P8) prevented death by megacolon in about half of Hol^Tg/Tg mice at P28, the maximum age of survival for control Hol^Tg/Tg mice (FIG. 2A). Most animals surviving to P28 reached adult age after GDNF treatment and mice evaluated could reproduce (two tested breeding pairs were fertile). […]

[2] = test system: Hol^Tg/Tg mice; experiment: Time-course immunofluorescence of HisGDNF distribution and RET expression in distal colon; format: in vivo, mouse
Protocol: as §1
Tissue labelling and imaging. […] EdU was detected using the Invitrogen Click-iT EdU Imaging Kit (ThermoFisher Scientific, Cat. # C10337) in accordance with the manufacturer's instructions. […]

Molecule	life expectancy [1]	distribution in colon submucosa, smooth muscles and subsets of enteric neurons ([2]; distal colon 2 h after treatment on P4, P6 and P8, Hol^Tg/Tg)	levels of the main GDNF receptor RET ([2]; distal colon, P4-P8 treatment, Hol^Tg/Tg)
COc1cc(N)c(Cl)cc1C(=O)CCC1CCN(CCNS(C)(=O)=O)CC1 [RS67506]	failed to increase life expectancy		
endothelin-3 (CTCFTYKDKECVYYCHLDIIW; ends and bridges not checked; cysteine pairing not given here; UniProt P14138 97-117, looked up) [endothelin-3 monomer (26 kDa), Sigma Cat. # E9137, tested neurotrophic molecule]	failed to increase life expectancy		
Noggin: Noggin homodimer (46 kDa), Sigma Cat. # SRP4675, tested neurotrophic molecule (protein, UniProt Q13253 28-232, looked up) Noggin: QHYLHIRPAPSDNLPLVDLIEHPDPIFDPKEKDLNETLLRSLLGGHYDPGFMATSPPEDRPGGGGGAAGGAEDLAELDQLLRQRPSGAMPSEIKGLEFSEGLAQGKKQRLSKKLRRKLQMWLWSQTFCPVLYAWNDLGSRFWPRYVKVGSCFSKRSCSVPEGMVCKPSKSVHLTVLRWRCQRRGGQRCGWIPIQYPIISECKCSC	failed to increase life expectancy		
HisGDNF: 6×His-tagged version of GDNF used for enema treatments (protein, UniProt P39905 78-211, looked up, 6xHis tag, 6×His-tagged version of GDNF used for enema treatments) Glial cell line-derived …: SPDKQMAVLPRRERNRQAAAANPENSRGKGRRGQRGKNRGCVLTAIHLNVTDLGLGYETKEELIFRYCSGSCDAAETTYDKILKNLSRNRRLVSDKVGQACCRPIAFDDDLSFLDDNLVYHILRKHSAKRCGCI		accumulated over time	increased
